In patent publication US20070111265A1, “Ligands for mineralocorticoid receptor (MR) and methods for screening for or designing MR ligands” (Van Andel Research Institute, priority 2005, published 2007):
Where a chain is given by its changes, count along the chain named. Numbers in names are those of the source. Each block holds one molecule with its values, some of them ahead of it.

What was measured:
[1] = target: T1, purified MR/corticosterone complex (MR LBD C808S) (Homo sapiens, UniProt P08235, C808S); experiment: AlphaScreen peptide competition (IC50) of coactivator LXXLL motifs; assay type: binding
T1 construct: made in house; host or cells: E. coli BL21DE3 (pET24a)
T1 sequence (P08235 727-984 C808S): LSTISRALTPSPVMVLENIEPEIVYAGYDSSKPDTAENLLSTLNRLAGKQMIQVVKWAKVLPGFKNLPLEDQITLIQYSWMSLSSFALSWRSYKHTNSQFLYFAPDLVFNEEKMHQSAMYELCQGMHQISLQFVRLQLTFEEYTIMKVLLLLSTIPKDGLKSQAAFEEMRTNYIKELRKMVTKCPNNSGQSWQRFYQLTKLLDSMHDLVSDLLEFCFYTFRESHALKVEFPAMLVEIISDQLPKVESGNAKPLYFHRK
Text: (D) Binding affinity of various coactivator LXXLL motifs to the purified MR/corticosterone complex as determined by IC50 values from peptide competition experiments using AlphaScreen assays. The numbering scheme of the LXXLL motifs is shown on the top of the sequences.
SRC2-(2+3) and […] SRC2 protein fragments containing 2nd and 3rd LXXLL motifs. The 2nd LXXLL motif of SRC2 was mutated to LXXAA in SRC2-(M2+3).
(G) Binding affinity of PGC1α-(1+2), PGC1α-1 and PGC1α-2 to the purified MR/corticosterone complex as determined by IC50 values from peptide competition experiments.
The fusion protein contains a His6-TAG ([…]) at the N terminus and a thrombin protease site between GST and the MR LBD. BL21DE3 cells transformed with this expression plasmid were grown in LB broth at 16° C. to an OD600 of ˜1 and induced with 0.1 mM IPTG and 50 μM corticosterone. Cells were harvested, resuspended in 400 ml extract buffer (50 mM Tris[pH8.0], 150 mM NaCl, 2 M Urea, 10% glycerol) per 24 liters of cells, and passed three times through a French Press with pressure set at […]. […] Both human PGC1α (1+2) (residues 1-220) and SRC2-(2+3) (residues 563-763) were expressed as a 6×His-GST fusion protein from the expression vector pET24a (Novagen). […]
The binding of various peptide motifs to MR was determined by AlphaScreen assays using a hexahistidine detection kit from Perkin-Elmer. […]

VP16-MR LBD = target: T2, VP16-MR LBD (Homo sapiens, UniProt P08235); experiment: Mammalian two hybrid assay, pG5Luc reporter; assay type: cell-based; conditions: 10 nM corticosterone
T2 construct: expressed in transfected cells; host or cells: Cos-7
T2 sequence (P08235 727-984): T1 sequence (P08235 727-984 C808S) with S82C
Procedure: (C) Mammalian two-hybrid interaction of SRC1 with MR. GAL4-DBD were fused with the SRC1-4 motif (SRC1-4, residues 1240-1441) and two mutated forms of SRC1-4 [SRC1-4(E1441K), corresponding to E+7K mutation of the SRC1-4 motif, and SRC1-M4 (L1438A/L1439A), corresponding to the LXXAA mutation of the SRC1-4 motif], respectively. VP16 were fused with MR LBD and MR LBD (K782E). The cells were cotransfected with GAL4 and VP16 fusion constructs and pG5Luc reporter. The cells were treated with 10 nM corticosterone.
Cos-7 cells were maintained in DMEM containing 10% fetal bovine serum (FBS) and were transiently transfected using Lipofectamine 2000 (Invitrogen). 24-Well plates were plated 24 hr prior to transfection (5×10^4 cells per well). Cells were transfected in Opti-MEM with 400 ng of MMTV-Luc reporter plasmid and 400 ng of receptor expression vector (pRS vector) encoding full-length GR and MR respectively (ATCC). […] For cotransfection of MR and SRC1, 50 ng Gal4-MR LBD was transfected with 200 ng pG5Luc and various amounts of PCR3.1-SRC1 as indicated in the figure legend. 18 hours after transfection, steroids were added in DMEM supplemented with 5% Charcoal/Dextran treated FBS (Hyclone). Cells were harvested 24 hours later for luciferase assays. Luciferase data were normalized to Renilla activity as an internal control. […]

B1: PGC1α-(1+2): purified human PGC1α fragment (residues 1-220) containing both LXXLL motifs (protein)
chain: MAWDMCNQDSESVWSDIECAALVGEDQPLCPDLPELDLSELDVNDLDTDSFLGGLKWCSDQSEIISNQYNNEPSNIFEKIDEENEANLLAVLTETLDSLPVDEDGLPSFDALTDGDVTTDNEASPSSMPDGTPPPQEAEEPSLLKKLLLAPANTQLSYNECSGLSTQNHANHNHRIRTNPAIVKTENSWSNKAKSICQQQKPQRRPCSELLKYLTTNDDP
modifications: left off: small tags and cut ends; a dimerising Fc or GST
notes: purified human PGC1α fragment (residues 1-220) containing both LXXLL motifs
- binding affinity to MR ([1]; compared with single motifs, FIG. 3G): much higher affinity than either motif alone

- decrease of binding affinity versus SRC2-(2+3) ([1]; second LXXLL motif mutated): more than 10 fold
B2: SRC2-(M2+3): SRC2 fragment in which the 2nd LXXLL motif was mutated to LXXAA (protein)
chain: QNSPVNMNPPPLSKMGSLDSKDCFGLYGEPSEGTTGQAESSCHPGEQKETNDPNLPPAVSSERADGQSRLHDSKGQTKLLQLLTTKSDQMEPSPLASSLSDTNKDSTGSLPGSGSTHGTSLKEKHKILHRAAQDSSSPVDLAKLTAEATGKDLSQESSSTAPGSEVTIKQEPVSPKKKENALLRYLLDKDDTKDIGLPEIT
modifications: left off: small tags and cut ends; a dimerising Fc or GST
notes: SRC2 fragment in which the 2nd LXXLL motif was mutated to LXXAA

- interaction with MR LBD (VP16-MR LBD): abolished the interaction
B3: SRC1-4M: GAL4-DBD SRC1-4 with LXXAA mutation of the SRC1-4 motif (protein)
chain: QGEANFAPSLSPGSSMVPMPIPPPQSSLLQQTPPASGYQSPDMKAWQQGAIGNNNVFSQAVQNQPTPAQPGVYNNMSITVSMAGGNTNVQNMNPMMAQMQMSSLQMPGMNTVCPEQINDPALRHTGLYCNQLSSTDLLKTEADGTQQVQQVQVFADVQCTVNLVGGDPYLNQPGPLGTQKPTSGPQTPQAQQKSLLQQAATE
modifications: left off: large carriers; small tags and cut ends
notes: GAL4-DBD SRC1-4 with LXXAA mutation of the SRC1-4 motif

- interaction with MR LBD (VP16-MR LBD): failed to interact
B4: SRC1-4 E1441K: GAL4-DBD SRC1-4 with E+7K mutation of the SRC1-4 motif (protein)
chain: B3 chain with A199L, A200L, E202K
modifications: left off: large carriers; small tags and cut ends
notes: GAL4-DBD SRC1-4 with E+7K mutation of the SRC1-4 motif
